According to article PMC4424398, “A Human Platelet Receptor Protein Microarray Identifies the High Affinity Immunoglobulin E Receptor Subunit α (FcεR1α) as an Activating Platelet Endothelium Aggregation Receptor 1 (PEAR1) Ligand* ^([image sbox.jpg])” (Molecular & Cellular Proteomics : MCP, 2015):

Tests used:
[1] = target: T1, PEAR1 ectodomain, monomeric biotinylated bait (human, UniProt Q5VY43 21-755, biotin (on the biotinylatable peptide tag)); assay: SPR; kinetic analysis
T1 chain: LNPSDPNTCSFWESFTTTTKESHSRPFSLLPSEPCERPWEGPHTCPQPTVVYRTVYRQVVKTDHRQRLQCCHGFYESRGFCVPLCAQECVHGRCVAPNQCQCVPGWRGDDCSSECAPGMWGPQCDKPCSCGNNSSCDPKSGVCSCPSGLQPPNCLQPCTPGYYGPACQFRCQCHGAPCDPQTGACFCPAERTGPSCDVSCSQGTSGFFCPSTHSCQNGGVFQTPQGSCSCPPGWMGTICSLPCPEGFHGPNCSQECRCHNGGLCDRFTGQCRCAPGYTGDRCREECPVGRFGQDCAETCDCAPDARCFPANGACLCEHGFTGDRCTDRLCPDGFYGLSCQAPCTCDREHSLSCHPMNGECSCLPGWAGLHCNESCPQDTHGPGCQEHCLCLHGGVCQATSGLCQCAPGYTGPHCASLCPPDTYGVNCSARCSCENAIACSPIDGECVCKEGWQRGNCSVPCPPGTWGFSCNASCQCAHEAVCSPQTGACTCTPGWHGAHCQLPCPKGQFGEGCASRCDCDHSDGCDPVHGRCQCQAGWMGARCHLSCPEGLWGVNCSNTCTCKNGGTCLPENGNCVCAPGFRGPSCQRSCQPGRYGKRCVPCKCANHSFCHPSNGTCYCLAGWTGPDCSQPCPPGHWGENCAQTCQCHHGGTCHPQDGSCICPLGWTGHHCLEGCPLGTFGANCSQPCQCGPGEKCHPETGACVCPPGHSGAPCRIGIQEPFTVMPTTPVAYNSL

[2] = target: T2, PEAR1 ectodomain, monomeric biotinylated bait (human, UniProt Q5VY43 21-755, biotin (on the biotinylatable peptide tag)); assay: SPR; Biacore T100; PEAR1 immobilised; gel-filtered monomeric FcεR1α-Cd4-His6 serially diluted and injected at 10 μl/min until equilibrium; reference-subtracted; equilibrium analysis; conditions: both partners purified
T2 construct: human platelet endothelium aggregation receptor 1 (PEAR1), whole ectodomain; also called PEAR1 bait; immobilized PEAR1; source: HEK293E, transient transfection, purified (Ni2+-NTA via His6)
T2 sequence (looked up): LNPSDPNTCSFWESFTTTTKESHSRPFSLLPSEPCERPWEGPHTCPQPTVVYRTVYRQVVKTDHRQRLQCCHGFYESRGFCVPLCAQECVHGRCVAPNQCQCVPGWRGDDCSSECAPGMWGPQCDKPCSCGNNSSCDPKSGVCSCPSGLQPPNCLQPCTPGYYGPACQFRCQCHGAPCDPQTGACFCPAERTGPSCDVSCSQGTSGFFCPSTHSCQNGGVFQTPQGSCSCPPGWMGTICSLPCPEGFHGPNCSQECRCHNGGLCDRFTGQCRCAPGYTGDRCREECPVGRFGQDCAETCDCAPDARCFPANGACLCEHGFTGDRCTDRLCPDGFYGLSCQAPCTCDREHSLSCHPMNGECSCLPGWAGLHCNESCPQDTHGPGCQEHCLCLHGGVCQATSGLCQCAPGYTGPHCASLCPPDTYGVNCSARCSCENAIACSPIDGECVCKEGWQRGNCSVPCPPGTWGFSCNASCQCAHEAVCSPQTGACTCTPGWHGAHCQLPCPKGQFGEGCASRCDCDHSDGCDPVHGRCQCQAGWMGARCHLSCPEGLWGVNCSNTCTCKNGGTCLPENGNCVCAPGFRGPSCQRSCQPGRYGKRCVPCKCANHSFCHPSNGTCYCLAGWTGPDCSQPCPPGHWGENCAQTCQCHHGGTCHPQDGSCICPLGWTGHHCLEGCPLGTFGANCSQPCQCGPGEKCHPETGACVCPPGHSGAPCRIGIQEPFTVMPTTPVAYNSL

[3] = target: T2, PEAR1 ectodomain, monomeric …; assay: SPR; Biacore T100; PEAR1 immobilised; seven serial dilutions of FcεR1α-Cd4-His6 injected at 100 μl/min; kinetic analysis, 1:1 binding model; conditions: both partners purified

koff [1]: 0.0788 s⁻¹
Kd [2]: 27.4 ± 1.3 nM
stoichiometry N [3]: 1
B1: FcεR1α-Cd4-His6, purified monomeric soluble protein (receptor, human, UniProt P12319 26-205, looked up)
chain: VPQKPKVSLNPPWNRIFKGENVTLTCNGNNFFEVSSTKWFHNGSLSEETNSSLNIVNAKFEDSGEYKCQHQQVNESEPVYLEVFSDWLLLQASAEVVMEGQPLFLRCHGWRNWDVYKVIYYKDGEALKYWYENHNISITNATVEDSGTYYCTGKVWQLDYESEPLNITVIKAPREKYWLQ
notes: also called soluble FcεR1α-Cd4-His6; source: HEK293E, transient transfection, purified (His6), resolved by gel filtration just prior to use
